These results are taken from patent US20200031912A1 (published 2020).

Sequences and labels used below:
B1: ABD02 (SEQ ID NO: 4) (designed binder)
chain: GPSVFLFPPKPKDTLMISRTPEVTCVFVDYRADYLEVKFNWYVDGAEVHNAKTKPRQYDPLYGYRVVSVLTVLHQDWLNGKEYTCKVSNKALPAPIEKTISKDK
B2: ABD03 (SEQ ID NO: 5) (designed binder)
chain: GPSVFLFPPKPKDTLMISRTPEVTCVFVDYRADYLEVKFNWYVDGAEVHHAKTKPRQYDPLYGYRVVSVLTVSHQDWLNGKEYTCKVSNKALPAPIQKTISKDK
B3: ABD04 (SEQ ID NO: 6) (designed binder)
chain: GPSVFLFPPKPKDTMMISRTPEVTCVFVDYRADYLEVKFNWYVDGAEVHHAKTKPRQYDPLYGYRVVSVLTVSHQDWLNGKEYTCKVSNKALPAPIEKTISKDK
B4: ABD01 (SEQ ID NO: 3) (designed binder)
chain: GPSVFLFPPKPKDTLMISRTPEVTCVFVDYRADYLEVKFNWYVDGVEVHNAKTKPRQYDPLYGYRVVSVLTVLHQDWLNGKEYTCKVSNKALPAPIEKTISKDK
B5: ABD05 (SEQ ID NO: 7) (designed binder)
chain: GPSVFLFPPKPKDTLMISRTPEVTCVFVDYRADYLEVKFNWYVDGAEVHHAKTKPRQYDPLYGYRVVSVLTVSHQDWLNGKEYTCKVSNKALPAPIEKTISKDK
B6: B11, a template CH2 domain molecule (SEQ ID NO: 12) (designed binder)
chain: GPSVFLFPPKPKDTLMISRTPEVTCVVVDYRADYLEVKFNWYVDGVEVHNAKTKPRQYDPLYGYRVVSVLTVLHQDWLNGKEYKCKVSNKALPAPIEKTISKAK
B7: template (Macaque) CH2 domain molecule of SEQ ID NO: 2 (other)
chain: GPSVFLFPPKPKDTLMISRTPEVTCVVVDVSQEDPDVKFNWYVNGAEVHHAQTKPRETQYNSTYRVVSVLTVTHQDWLNGKEYTCKVSNKALPAPIQKTISKDK

The target in the test is human recombinant FcRn protein (human, UniProt P55899 24-297). Nature of the test: Biacore. Background: SPR reads the build-up and loss of mass on a sensor chip optically.
Sequence of human recombinant FcRn protein (P55899 24-297): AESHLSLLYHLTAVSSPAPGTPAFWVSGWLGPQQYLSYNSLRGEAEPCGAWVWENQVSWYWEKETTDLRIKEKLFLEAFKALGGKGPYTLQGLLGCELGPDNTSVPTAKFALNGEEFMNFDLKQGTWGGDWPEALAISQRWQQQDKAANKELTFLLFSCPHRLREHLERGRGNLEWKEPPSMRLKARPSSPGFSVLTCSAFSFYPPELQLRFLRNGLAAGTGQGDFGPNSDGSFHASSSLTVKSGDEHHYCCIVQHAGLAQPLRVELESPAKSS
Regarding B1, the Kd – broadly, the equilibrium constant for the complex coming apart – was 21 nM. With B2 the figure was 11.4 nM; with B3, 8.9 nM. Take B4: the dissociation constant (Kd) is 4.18 nM. As for B5, the dissociation constant (Kd) was found to be 9.1 nM. For the molecule B6, the equilibrium dissociation constant (Kd) was determined as 12 nM.

Turning to B7, the dissociation constant Kd came to 13 nM.
